Measurements from patent publication US20230227567A1 (SELVAX, published 2023).

How the values were obtained:
[1] = target: T1, CD40 expressed on the surface of human peripheral blood mononuclear cells (human, UniProt P25942 21-277); assay: flow cytometry on human PBMC
T1 construct: Native CD40 on primary human cells (PBMC, B cells, monocyte-derived dendritic cells); also called native CD40 protein; CD40 on the surface of B cells
Procedure: PMBC were stained with an anti-human CD19 antibody labelled with PE. […] Lymphocytes were gated based on FSC-A and SSC-A signals.
FACS staining was carried out on 10⁶ human PBMC per well. […] Cells were washed twice with FACS buffer and resuspended in 20 μl of BV421 anti-mouse Ig diluted in FACS buffer and incubated for 30 minutes. Cells were washed twice with FACS buffer and resuspended in 20 μl of PE anti-human CD19 diluted in FACS buffer and incubated for 30 minutes. Cells were washed once with FACS buffer and once with PBS and resuspended in 100 μl of 1% formaldehyde in PBS and incubated for 20 minutes. Cells were washed twice with FACS buffer and resuspended in 200 μl of FACS buffer for analysis.
FACS staining controls included an unstained control, PE anti-human CD19 and BV421 mouse anti-human Ig single stain controls and human IgG1 isotype control. Cell staining was analysed using a FACS Canto II flow cytometer (BD). PMT voltages and gates for analysis were set using the FACS staining controls.

[2] = target: T2, recombinant human CD40 extracellular domain with a C-terminal human IgG1 Fc domain and 6His tag (BioLegend) (human); assay: SPR Biacore T200, SVX-3001 amine-coupled to CM5, CD40-Fc analyte, 1:1 model; value 1
T2 construct: Bought reagent; also called CD40-Fc
Procedure: (§1) Method: Kinetic analysis by surface plasmon resonance (SPR) was carried out using the Biacore T200 (GE Healthcare). HBS-EP+ buffer was used as running buffer throughout.
(§2) Target immobilisation level: 600 RU. Wash solution: Ethanolamine.
(§3) Injection parameters for the sample were contact time: 120 seconds, flow rate: 30 μI/min, dissociation time: 300 seconds. Injection parameters for regeneration were contact time: 30 seconds, flow rate: 30 μI/min, stabilisation period: 0 seconds. Regeneration solution was either 10 mM glycine-HCl buffer pH 1.5 or 50 mM NaOH. The concentrations of CD40-His and CD40-Fc used for the kinetic analysis were […]. The model 1:1 binding was used for curve fitting.

[3] = target: T2, recombinant human CD40 extracellular …; assay: SPR Biacore T200, SVX-3001 amine-coupled to CM5, CD40-Fc analyte, 1:1 model; value 2
Procedure: as §1, §2, §3

[4] = target: T2, recombinant human CD40 extracellular …; assay: SPR Biacore T200, SVX-3001 amine-coupled to CM5, CD40-Fc analyte, 1:1 model; value 3
Procedure: as §1, §2, §3

[5] = target: T3, recombinant human CD40 extracellular domain with C-terminal 6His tag (Novoprotein) (human); assay: SPR Biacore T200, SVX-3001 amine-coupled to CM5, CD40-6His analyte, 1:1 model; value 1
T3 construct: Bought reagent; also called CD40-6His; CD40-His
Procedure: as §1, §2, §3

[6] = target: T3, recombinant human CD40 extracellular …; assay: SPR Biacore T200, SVX-3001 amine-coupled to CM5, CD40-6His analyte, 1:1 model; value 2
Procedure: as §1, §2, §3

[7] = target: T3, recombinant human CD40 extracellular …; assay: SPR Biacore T200, SVX-3001 amine-coupled to CM5, CD40-6His analyte, 1:1 model; value 3
Procedure: as §1, §2, §3

[8] = target: T2, recombinant human CD40 extracellular …; assay: SPR Biacore T200, SVX-3001 amine-coupled to CM5, CD40-Fc analyte, 1:1 model; average of three
Procedure: as §1, §2, §3

[9] = target: T3, recombinant human CD40 extracellular …; assay: SPR Biacore T200, SVX-3001 amine-coupled to CM5, CD40-6His analyte, 1:1 model; average of three
Procedure: as §1, §2, §3

T3 sequence (P25942 21-193): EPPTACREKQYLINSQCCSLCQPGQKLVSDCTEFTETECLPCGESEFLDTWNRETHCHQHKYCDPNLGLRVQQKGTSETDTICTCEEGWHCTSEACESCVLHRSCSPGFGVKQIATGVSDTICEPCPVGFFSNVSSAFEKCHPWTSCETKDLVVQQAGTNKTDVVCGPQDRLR
T2 sequence (P25942 21-193): as above
T1 sequence (P25942 21-277 limits assumed): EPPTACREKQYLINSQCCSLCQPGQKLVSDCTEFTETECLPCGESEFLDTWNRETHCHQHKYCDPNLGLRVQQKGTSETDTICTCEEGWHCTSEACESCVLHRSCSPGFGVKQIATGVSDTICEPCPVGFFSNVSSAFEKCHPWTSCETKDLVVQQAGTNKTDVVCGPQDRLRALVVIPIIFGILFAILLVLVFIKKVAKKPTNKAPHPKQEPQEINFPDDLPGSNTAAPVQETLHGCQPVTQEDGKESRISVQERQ

binding result [1]: binds | Kd [2]: 0.323 nM | koff [2]: 0.000232 s⁻¹ | kon [2]: 717000 M⁻¹ s⁻¹ | Kd [3]: 1.12 nM | koff [3]: 0.000555 s⁻¹ | kon [3]: 497000 M⁻¹ s⁻¹ | Kd [4]: 0.308 nM | koff [4]: 0.000203 s⁻¹ | kon [4]: 661000 M⁻¹ s⁻¹ | Kd [5]: 5.33 nM | koff [5]: 0.00381 s⁻¹ | kon [5]: 715000 M⁻¹ s⁻¹ | Kd [6]: 6.5 nM | koff [6]: 0.00409 s⁻¹ | kon [6]: 628000 M⁻¹ s⁻¹ | Kd [7]: 6.51 nM | koff [7]: 0.00375 s⁻¹ | kon [7]: 576000 M⁻¹ s⁻¹ | Kd [8]: 0.583 nM | koff [8]: 0.00033 s⁻¹ | kon [8]: 621000 M⁻¹ s⁻¹ | Kd [9]: 6.11 nM | koff [9]: 0.00388 s⁻¹ | kon [9]: 640000 M⁻¹ s⁻¹
B1: Humanized anti-human CD-40 antibody SVX-3001 (antibody, human IgG1, kappa, V domains shown)
VH: QVQLQQSGPGLVKPSQSLSLTCAVSGYSITTNYYWNWIRQAPGKGLEWVGYIRYDGTTYYAPSLKGRFSITRDTSKNQFFLQLTSVTPEDTATYYCARLDYWGQGTLVTVSS
VL: DIVMTQSPLSLSVSLGDRASISCRSSQSLENSNGNTFLNWFQQKPGQSPQLLIYRVSNRFSGVPDRFSGSGSGTDFTLKISRVEAEDEGVYFCLQVTHVPYTFGGGTKLEIKR
notes: Human IgG1 heavy chain constant region and human kappa light chain constant region; made in HEK 293T cells, used as supernatant or Protein G purified; also called humanised agonist anti-human CD40 antibody; Selvax01
